Data as given in patent publication US20250270584A1, “Gene editing to provide insect resistance in crops” (The Regents of the University of California, priority 2022, published 2025).

Molecular target: 6His-CaM7 (Arabidopsis thaliana), P59220
Test: ITC at 25 C, peptide titrated into 6His-CaM7, 1 mM Ca2+

DQQQNHDSSSMRSTRLQRFLSL (modifications not checked) [CBD peptide]
stoichiometry (peptide per CaM7): 1
